Measured values published in the nanobody polyreactivity screen of Harvey et al. (2022).

Assay: yeast display, Sf9 membrane polyspecificity reagent, FACS + sequencing; frameworks hold sequencing errors
Method in brief: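 Polyreactivity labels are assigned by the sorting gate from which each nanobody was recovered. The gates were low and high (top ~1%), set on anti-HA fluorescence for expression and streptavidin fluorescence for reagent binding. Before sorting, galactose-induced (36–48 hours) yeast display cells were stained for 1 hour at 4 °C with 10% biotinylated, detergent-solubilized Sf9 membrane reagent.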

Row | Sequence | polyreactivity (PSR sort gate)
1 | QVQLVESGGGLVQAGGSLRLSCAASGSNVPSYAMGWYRQAPGKERELVAAINSGGGTNYADSVKGRFTISRDNAKNTVYVQMNSLKPEDTAVYYCAKSRYDYTKTEGGYWGQGTQVTVSS | low polyreactivity
2 | QVQLQESGGGLVQAGGSLRLSCAASCTISQEDWIGWYRQAPGKEREFVAAIGLGSNTNYADSLKGRFTISRDNAKNTVYLQMNSLKPEDTAVYYCAVSVWQYSDHVYRGQGTQVTVSS | low polyreactivity
3 | QVQLVESGGGLVQAGGSLRLSCAASGFTFKRYAMGWYRQAPGNERELVAAISYSGGSTYYADSVKWRFTISRDNAKNTVYLQMKSLKPEDTAVYYCAAPRGHGKYYSWGQGTQVTVSS | high polyreactivity
4 | QVQLVESGGGLVQAGGSLRLSCAASGRTFNYYAMGWYRQAPGKERELVATITFSGDGSTYYAHSVKGRFTISRDNAKNTVYLHMNSLKPEDTAVYYCTADIEKSYNYWGQGTQVTVSS | low polyreactivity
5 | QVQLVESGGGLVQAGGSLRLSCAASGSTFVIYAMGWYRQAPGKERELVAAITISGGRTYYADSVKGRFTISRDNAKNTVYLQMNSLKPEDTAVYYCAATVVSTYPYGYGSTFVRDDYWGQGTQVTVSS | low polyreactivity
6 | QVQLVESGGGLVQAGGSLRLSCAASGSTLRYYAMGWYRQAPGKEREWVAAISTGGSTYYADSVKGRFTISRDNAKKTVYLQMHSLKPEDTAVYYCAAEPWANTPGEAGSPFDYWGQGTQVTVSS | low polyreactivity
7 | QVQLVESGGGLVQAGGSLRLSCAASGRIFGVNAMGWYRQAPGKERELVAGITTSGGSTYYADSVKGRFTISRDNAKNTVYLQMNSLKPEDTAVYYFNGLTRRWYSLRSYDYWGQGTQVTVSW | high polyreactivity
8 | QVQLVESGGGLVQAGGSLRLSCAASGRIFFVNAMGWYRQAPGKERELVAAISSGGSTNYADSVKGRFTISRDNAKNTVYLQMNSLKPEDTAVYYCASSHYRYGTQGYDYWGQGTQVTVSS | low polyreactivity
9 | QVQLVESGGGLVQAGGSLRLSCAASGRIFGYYAMGCYRQAPGKERELVAAIRWGGGRTYADSVKGRFTISRDNAKNTVYLQMNSLKPEDTAVDYCAARFTRTRPLWRARYGYWGQGTQVTVSS | high polyreactivity
10 | QVQLVESGGRLVQAGGSLRLSCAASGFTFWNYAMGWYRQAPGKERELVAAISRSGTSTYYADSVKGRFTISRDYAKNTVYLQMNSLKPEDTAVYYCNVLRVKSITYLMDYWGQGTQVTVSS | high polyreactivity
11 | QVQLVESGGGLVQAGGSLLLSCAASGRTLGKYAMGWYRQAPGKERELVAAISSGGGSTYYSDSVKGRFTISRDNAKNTVYLLMNSLKPEDTAVYYCAADSVSRYNGYDYWGQGTQVTVSS | high polyreactivity
12 | QVQLVESGGGLVQAGGSLRLSCAASGITFVYYTMGWYRQAPGKERELVASITWDGGSTYYADSVKGRFTISRDNAKNTVYLQMNSLKPEDTAVYYCNRDRVSGGKYNYWGQGTQVTVSS | low polyreactivity
13 | QVQLVESGGGLVQAGGSLRLSCAASGLSLDVNVMGWYRPAPGKERELVAGIRSDSRTNYADSVKGRFTISRDNAKNTVYLQMNRLKPEDTAVYYCATRDKYISYYTYPYYSWGQGTQVTVSS | low polyreactivity
14 | QVQLVESGGGLVQAGGSLRLSCAASGSTFRVNAMGWYRQAPGKERELVAAISGSGSGTYYADSVKGRFTISRDNAKNTVYLQMNSLKPEDTAVYYCAKVPKSRGYVGGMDYWGQGTQVTVSS | low polyreactivity
15 | QVQLVESGGGLVQAGGSLRLSCAASGNTIYQYAMGWYRQAPGKERELVAAISSSVDRTYYADSVKGRFTISRDNAKNTVYLQMNSLKPEDTAVYYCAAASGGRWRVGYWGQGTQVTVSS | high polyreactivity
16 | QVQLVESGGGLVQAGGSLRLSCDDSGTFFMGWNIPAPRKERELVAGISISDGSTYYADSVKGRFTISRDNAKNSVYLQMNSLKPEDTAVYYCAADSHYLYDYWGQGTQVTVSS | low polyreactivity
17 | QVQLVESGGGLVQAGGSLRLSCAASGITFKSYAMGWYRKAPGKERELVAAITRSGGSTYYADSVKGRLTISRDNAKNTVYLQMNSLKPEDTAVYYCAARYFIAYPQYTYDYWGQGTQVTVSS | high polyreactivity
18 | QVQLVESGGGLVQAGGSLRLSCAASGRISYLYTMGWYRQAPGKERELVAAIRWRDGSTYYADSVKGRFTISRDNAKNTVYLQMNSLTPEDTAVYYCAATPVGFYWYDYWGQGTQVTVSS | low polyreactivity
19 | QVQLVESGGGLVQSGGSLRLSCAASGSFYYFYSMGWYRQAPGKEREVVAANTDGGSTHYAESVKGRFTISRDNAKNTVYLQMNSMKPEDTAVYSCAAQWHYYLGSGYQYDYWGQGTQVTVSS | low polyreactivity
20 | QVQLVESGGGLVQAGGSLRLSCAASGLTFLNKAMGWYREAPGKERELVAAISRGGSTNYADSVKGRFTISRDNAKNTVYLQMNSLKPQDTAGYYCAAQIFESAYGMDYWGQGTQVTVSS | low polyreactivity
21 | QVQLVESGGGLVQAGGSLRLSCAASGSTFDENAMGWYRQAPGKERELVAGITTNGGSTSYADSVKGRFTISRDNAKNTVYLQMNSLKPEDTAVYYCAKGLYVQFDYWGQGSQVTVSS | low polyreactivity
22 | QVQLVESGGGLVQAGGSLRLSCAASGRSFYGYAMGWYRQAPGKERELVARISGGGRTYYADSVKGRFTISRDNAKNTVYLQMNSLNPEDTAVYYCAAVYRSTWYGFTGSVGTFDYWGQGTQVTVSS | high polyreactivity

Row | Sequence | polyreactivity (PSR sort gate)
23 | QVQLVESGGGLVQAGGSLRLSCAASGSTLLYYAMGWYRQAPGKERELVAAINKSGGRTYYADSVKGRFTISRDNAKNTVYLQMNSLKPEDTAVYYCAVDISVTGSSNRYGYWGQGTQVTVSS | high polyreactivity
24 | QVQLVESGGGLVQAGGSLRLSCAASGRTFYFYTMGWYRQAPGKERELVATINWSGTSTYYADSVKGRFTISRDNAKNTVYLQMNSLKPEDTAVYYCAVRGGRYKYGYDYWGQGSQVTVSS | high polyreactivity
25 | QVQLLESGGGLVQAGGSVRLSCAASGFTYRYYAMGWYRQEPGKERELVASISFSGTRTYYADSVKGRFTISRDNAKNTVFLQMNSLKPHDTAVDYCNACLYSRYEFDYWGQGSQVTVSS | high polyreactivity
26 | QVQLVESGGGLVQAGGSLRLSCAASGSIFVPYAMGWYRQAPGKERELVAAISRGGDTNYADSVKGRFTISRDNAKNTVYLQMNSLKPEDTAVYYCNRARHQSSRWHGGYYYWGQGTQVTVSS | low polyreactivity
27 | QVQLVESGGGLVQAGGSLRLSCAASGSTFPVYAMGGYRQAPGKERELVAAISLIGGSTYYADSVKGRFTISRDTAKNTVYLQMNSLKPEDTAVYYCNTAVISSPPAIDVLEMDYWGQGTQVTVSS | low polyreactivity
28 | QVQLVESGGGLVQAGGSLRLSCAASGFTFRRYVMGWYRQAPGKERELVAAISSGGRTNYADSVKGRFTISRYNAKNTVYLQMNSLKPEDTAVYYCGYLDRYHHLRYWGQGTQVTVSS | high polyreactivity
29 | QVQLVESGGGLVQAGGSLRLSCAASGFTFSWNAMGWYRQAPGKEREFVAAITSSGGSTYADSVKGRFTISRDNAKNTVYLQMNSLKPEDTAVYYCAAGGFSQHGHGYWGQGTQVTVSS | high polyreactivity
30 | QDQIVESGGGYDQAGGSLRLTCAASGRIFRGNDMGSYRQAPGKERELVASISGTGGRTYYADSVKGRFTISRDNAKNTVYLQMNSLKPEDPAVYYCAVRTSLWGYYYWGHGTQVTVSS | high polyreactivity
31 | QVQRVESGGGLVQAGGSLRLSCAASGFTSLIYAMGWYRQAPGKESELVATITWGGGSTYADSVKGRFTISRDNAKNTVYLQMNSLKPEDTAVFYCIADIYDSWDYATVYSDRYDYWGQGTQVTVSS | low polyreactivity
32 | QVQLVESGGGLVQAGGSLRLCCAASGSNFRRNAMGLYRQAPGKERELVAAMSWTSTRTYYADSVKVRFTISRDNAKNTVYLQMNSLKPEDTAVYYCAADSNGGGFQLYSYDSGLYYWGQGTQVTVSS | high polyreactivity
33 | QVQLVESGGGLVQAGGSLRLSCAASGIIFIIYTMGWYRQSPGKERELVAAISWSGGSTYYADSVKGRFTISRDNAKNTVYLQMNSLKPEDTAVYYCAADVANWYGGGNSDYDHEYWGQGPQVTVSS | low polyreactivity
34 | QVQLVESGGGLVQAGGSLRLSCAASGSTVHYMGWYRPAPGKERELVAGISWSGGSTYYADSVKGRFTISRDNAKNTVYLQMTSLKPEDTAVYYCAADIKIRLYTTGDYWGQGTQVTVSS | low polyreactivity
35 | QVQLVESGGGLVQAGGSLRLSCAASGSTFSSNVMGWYRQAPGKERELVAAITGSGSRTYYADSVKGRFTISRDNAKNTVYLQMNSLKPEDTAVYYCNTKGRSRETYGYDYWGQGTQVTVSS | high polyreactivity
36 | QVQLVESGGVLVQAGGSLRLSCAAYGFSFNDYAMGWYRQAPGKERELVAAIDWSGGRTYYADSVKGRFTISRDNAKNTVYLQMNSLKPEDTAVYYCAAVLYSRLYWYRLDYWGQGTQVTVSS | low polyreactivity
37 | QVQLVESGGGLVQAGGSLRLSCAASGRIFGAYAMGWYRQAPGKERELVAAITQSGGSTFYADSVKGRFTISRDNAKNTVYLQMNSLKPEDTAVYYWGQGTQVTVSS | low polyreactivity
38 | QVQLVESGGGLVQAGGSLRLSCAASGFIFYPNAMGWYRQAPGKERELVAGISWSGTSTYYADSVKGRFTISRDNAKNTVYLQMNSLKPEDTAVYYCNRVFYHFDVDRYDYWGQGTQVTVSS | low polyreactivity
39 | QVQLVESGGGLVQAGGSLRLSCAASGSTFSANTMGWYRQAPGKERELVAAISSSGVGTRYADSVKGRFTISRDNAKNTVYLQMNSLKPEDTSVFYCAADYRPTVITRNDYWGQGTQVTVSS | low polyreactivity
40 | QVQLVESGGGLVQAGGSLRLSCAASGFIFHNYVMGWYRQAPGKERELVAVISGSGGSTYYADSVKGRFTISRDNAKNTVYLQMNSLKPEDTAVYYCAADNVYGYDYWGQGTQVTVSS | low polyreactivity
41 | QVQLVESGGGLVQAGGSLRLSCAASGRIFQPYAMGWYRQAPGKERELVARITSGGSTYADSVKGRFTISRDNAKNTVYLQMNSLKPEDTAVYYCAVRYPWYYRGYAYDYWGQGTQVTVSS | high polyreactivity
42 | QVQLVESGGGLVQAGGSLRLSCAASGRTFGWYTMGWYRPAPGKERELVAAISRSGTSTYYADSVKGRFTISRDNAKNTVYLQMNSLKQEDTAVYYCAQYVNPRGGNYWGQGTQVTVSS | high polyreactivity
43 | QVQLVESGGGLVQAGGSLRLSCAASGFIFYHNAMGWYRQAPGKERELVAAISYSGGSTYYADSVKGRFTISRVNAKNTVYLQMNSLKPEDTAVYFCATPQTRTYDYWGQGTQVTVSS | high polyreactivity
